In patent US20170112792A1 (BETH ISRAEL DEACONESS MEDICAL CENTER, published 2017):
Positions count from the first letter of the chain named.

T1: IRAKM, overexpressed, from IL-33-treated cells (UniProt Q9Y616 1-596, phosphoserine at 110 (LC-MS/MS of the GST-Pin1-bound protein))
T1 construct: also called WT IRAKM
T1 sequence (looked up): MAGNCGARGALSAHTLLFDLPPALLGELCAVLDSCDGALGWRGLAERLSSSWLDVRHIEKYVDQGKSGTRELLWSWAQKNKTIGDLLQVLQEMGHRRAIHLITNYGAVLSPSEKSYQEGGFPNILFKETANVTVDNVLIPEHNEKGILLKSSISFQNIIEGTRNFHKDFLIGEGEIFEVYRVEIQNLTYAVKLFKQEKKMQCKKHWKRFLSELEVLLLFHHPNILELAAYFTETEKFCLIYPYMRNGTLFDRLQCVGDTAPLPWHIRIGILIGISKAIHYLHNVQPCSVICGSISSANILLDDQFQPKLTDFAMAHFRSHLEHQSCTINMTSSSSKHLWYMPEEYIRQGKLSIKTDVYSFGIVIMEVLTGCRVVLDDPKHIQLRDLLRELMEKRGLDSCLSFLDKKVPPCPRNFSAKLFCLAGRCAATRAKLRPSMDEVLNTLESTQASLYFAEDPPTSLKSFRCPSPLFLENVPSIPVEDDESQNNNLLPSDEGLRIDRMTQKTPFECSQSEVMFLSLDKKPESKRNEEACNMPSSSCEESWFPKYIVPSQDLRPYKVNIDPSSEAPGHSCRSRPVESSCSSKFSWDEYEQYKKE

T2: IRAKM P111A (UniProt Q9Y616 1-596)
T2 construct: also called P111A mutant; P111 mutation
T2 sequence (looked up): T1 sequence (looked up) with P111A

T3: IRAKM S110E peptide (IRAKM residues 103-124 with the S110E substitution)
T3 construct: Synthetic peptide; also called IRAKM Ser110E
T3 peptide: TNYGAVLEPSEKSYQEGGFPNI

T4: myc-MKP3 (UniProt Q16828 1-381)
T4 construct: also called MAP kinase phosphatase 3; not shown: myc tag
T4 sequence (looked up): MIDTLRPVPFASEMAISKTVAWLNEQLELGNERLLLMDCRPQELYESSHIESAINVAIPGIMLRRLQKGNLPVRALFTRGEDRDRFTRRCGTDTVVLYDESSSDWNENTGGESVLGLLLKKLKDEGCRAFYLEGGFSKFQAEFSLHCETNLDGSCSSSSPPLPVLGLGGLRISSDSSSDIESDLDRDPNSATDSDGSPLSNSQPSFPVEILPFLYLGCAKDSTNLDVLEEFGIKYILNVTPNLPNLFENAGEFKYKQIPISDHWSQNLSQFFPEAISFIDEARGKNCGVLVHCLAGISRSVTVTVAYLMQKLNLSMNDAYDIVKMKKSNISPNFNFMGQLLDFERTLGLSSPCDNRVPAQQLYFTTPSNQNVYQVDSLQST

B1: Flag-Rab2A (enzyme, UniProt P61019 1-212, looked up)
chain: MAYAYLFKYIIIGDTGVGKSCLLLQFTDKRFQPVHDLTIGVEFGARMITIDGKQIKLQIWDTAGQESFRSITRSYYRGAAGALLVYDITRRDTFNHLTTWLEDARQHSNSNMVIMLIGNKSDLESRREVKKEEGEAFAREHGLIFMETSAKTASNVEEAFINTAKEIYEKIQEGVFDINNEANGIKIGPQHAATNATHAGNQGGQQAGGGCC
notes: Expressed in HEK293/293T or HMLE cells; also called Flag-tagged wild-type Rab2A; not shown: Flag tag
B2: GST-Rab2A (wild type) (enzyme, UniProt P61019 1-212, looked up)
chain: B1 chain
notes: also called wild-type GST-Rab2A fusion protein; not shown: GST tag
B3: GST-Rab2A mut1/2 (enzyme, UniProt P61019 1-212, looked up)
chain: B1 chain with K29A, R30A, L37A, I39A
notes: not shown: GST tag
B4: GFP-PPlase (other)
chain: GKNGQGEPARVRCSHLLVKHSQSRRPSSWRQEKITRTKEEALELINGYIQKIKSGEEDFESLASQFSDCSSAKARGDLGAFSRGQMQKPFEDASFALRTGEMSGPVFTDSGIHIILRTE
notes: also called GFP fused the Pin1 peptidyl-prolyl cis-trans isomerase (PPlase) domain; GFP-PPlase domain; not shown: GFP
B5: endogenous Rab2A (HMLE cells) (enzyme, human, UniProt P61019 2-212, looked up)
chain: AYAYLFKYIIIGDTGVGKSCLLLQFTDKRFQPVHDLTIGVEFGARMITIDGKQIKLQIWDTAGQESFRSITRSYYRGAAGALLVYDITRRDTFNHLTTWLEDARQHSNSNMVIMLIGNKSDLESRREVKKEEGEAFAREHGLIFMETSAKTASNVEEAFINTAKEIYEKIQEGVFDINNEANGIKIGPQHAATNATHAGNQGGQQAGGGCC
B6: Pin1, endogenous in DC2.4 cells (enzyme, mouse, UniProt Q9QUR7 1-165, looked up)
chain: MADEEKLPPGWEKRMSRSSGRVYYFNHITNASQWERPSGGSTVGGSSKNGQGEPAKVRCSHLLVKHSQSRRPSSWRQEKITRSKEEALELINGYIQKIKSGEEDFESLASQFSDCSSAKARGDLGPFSRGQMQKPFEDASFALRTGEMSGPVFTDSGIHIILRTE
B7: 15N-labeled Pin1 WW domain (Pin1 residues 1-50) (other, UniProt Q13526 1-50, looked up)
chain: MADEEKLPPGWEKRMSRSSGRVYYFNHITNASQWERPSGNSSSGGKNGQG
modifications: uniformly 15N-labeled
notes: range 1-50; also called 15N-Pin1-WW; 15N-Pin1 WW
B8: Erk1 (enzyme, human, UniProt P27361 1-379, looked up)
chain: MAAAAAQGGGGGEPRRTEGVGPGVPGEVEMVKGQPFDVGPRYTQLQYIGEGAYGMVSSAYDHVRKTRVAIKKISPFEHQTYCQRTLREIQILLRFRHENVIGIRDILRASTLEAMRDVYIVQDLMETDLYKLLKSQQLSNDHICYFLYQILRGLKYIHSANVLHRDLKPSNLLINTTCDLKICDFGLARIADPEHDHTGFLTEYVATRWYRAPEIMLNSKGYTKSIDIWSVGCILAEMLSNRPIFPGKHYLDQLNHILGILGSPSQEDLNCIINMKARNYLQSLPSKTKVAWAKLFPKSDSKALDLLDRMLTFNPNKRITVEEALAHPYLEQYYDPTDEPVAEEPFTFAMELDDLPKERLKELIFQETARFQPGVLEAP
notes: entries are written once for Erk1 and once for Erk2; also called Erk1/2 (member Erk1); total Erk1/2

Assays:
[1] = target: T5, Erk2 (human, UniProt P28482 1-360); experiment: Flag co-IP from HEK293 cells transfected with Flag-Rab2A with or without AcMEK1, western blot
T5 construct: entries are written once for Erk1 and once for Erk2; also called Erk1/2 (member Erk2); total Erk1/2
T5 sequence (P28482 whole entry): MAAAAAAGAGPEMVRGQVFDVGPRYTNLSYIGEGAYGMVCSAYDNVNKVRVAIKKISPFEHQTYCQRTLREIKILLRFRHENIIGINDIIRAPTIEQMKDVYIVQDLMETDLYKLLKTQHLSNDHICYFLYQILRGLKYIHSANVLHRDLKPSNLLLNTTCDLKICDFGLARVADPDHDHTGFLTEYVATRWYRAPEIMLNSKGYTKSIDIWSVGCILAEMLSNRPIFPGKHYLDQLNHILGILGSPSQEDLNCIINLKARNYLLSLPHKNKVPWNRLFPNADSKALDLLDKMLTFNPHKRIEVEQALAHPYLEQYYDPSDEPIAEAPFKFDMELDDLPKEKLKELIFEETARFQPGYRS

[2] = target: T6, p-Erk2 (phosphorylated Erk2) (human, UniProt P28482 2-360, phosphorylated (p-Erk1/2, induced by constitutively active MEK1); sites not given); experiment: as above
T6 construct: also called p-Erk1/2 (member Erk2)
T6 sequence (P28482 2-360 limits assumed): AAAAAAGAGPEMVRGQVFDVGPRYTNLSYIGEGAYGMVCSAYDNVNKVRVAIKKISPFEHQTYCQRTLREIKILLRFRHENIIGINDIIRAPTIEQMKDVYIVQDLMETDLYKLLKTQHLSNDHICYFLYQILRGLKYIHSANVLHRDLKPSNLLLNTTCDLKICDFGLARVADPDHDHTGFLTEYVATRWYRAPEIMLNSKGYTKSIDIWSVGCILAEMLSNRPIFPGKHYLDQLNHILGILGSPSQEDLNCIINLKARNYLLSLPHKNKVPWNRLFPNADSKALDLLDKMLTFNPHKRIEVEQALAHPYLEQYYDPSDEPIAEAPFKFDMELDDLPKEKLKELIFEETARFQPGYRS

[3] = target: T7, p-Erk1 (phosphorylated Erk1) (human, UniProt P27361 2-379, phosphorylated (p-Erk1/2, induced by constitutively active MEK1); sites not given); experiment: as above
T7 construct: also called p-Erk1/2 (member Erk1)

[4] = target: B8; experiment: as above
[5] = target: T5, Erk2; experiment: GST pull-down of endogenous Erk1/2 from cell lysate, western blot
[6] = target: B8; experiment: as above
[7] = target: T1, IRAKM, overexpressed, from …; experiment: co-IP with anti-GFP antibody from IL-33-treated HEK293 cells co-expressing IRAKM, western blot for IRAKM
[8] = target: T5, Erk2; experiment: reciprocal co-IP of endogenous proteins from HMLE lysate, western blot; the Erk1/2 strip does not separate Erk1 from Erk2
[9] = target: B8; experiment: as above
[10] = target: T2, IRAKM P111A; experiment: co-IP with anti-IRAKM antibody from DC2.4 cells stably expressing P111A, western blot for Pin1
[11] = target: T3, IRAKM S110E peptide (IRAKM residues …); experiment: NMR titration, 1H-15N HSQC chemical shift changes
[12] = target: T4, myc-MKP3; experiment: competition co-IP: Flag IP of 293T lysates with a constant dose of Flag-Rab2A (competitor) and falling doses of myc-MKP3, western blot for Erk1/2

Which results are given for B1?
binding result [1]: binds; binding result [2]: binds; binding result [3]: binds; binding result [4]: binds

Does B2 bind [5]?
Result: binds

Does B2 bind [6]?
Result: binds

Does B3 bind [5]?
Result: no binding

Does B3 bind [6]?
Result: no binding

Does B4 bind [7]?
Result: no binding

Does B5 bind [8]?
Result: binds

Does B5 bind [9]?
Result: binds

Does B6 bind [10]?
Result: no binding

How did the Kd [11] turn out when B7 was run?
Its Kd is 1510 µM.

Does B8 bind [12]?
Result: binds
